{"source": "paper PMC3361975", "proteins": {"B1": {"name": "PTDH ortholog from N. punctiforme (Nostoc punctiforme PCC 73102) (protein)", "chain": "MKPKVVITHWVHPEIITNLSEYCEVVANPTRETLPREEILKLAQDAEALMVFMPDRIDEAFLKACPKLKIIAGALKGYDNFDVDACTRQGIWFTIVPSLLAVPTAELTIGLIIGLARQMLLGDRLIRQGTFAGWRPHLYGMGLANRTLGIVGMGSLGQALAQRLSSFEMNLIYTDAIPLPKEKAAAWCLSQVSLDTLLATSDFVVLMVPLQPETFHLINEKSLARMKPGSFLINPCRGSVVDEQAVSDALASGHLAGYAADVFELEDWARSDRPSKIPPSLLEKQDQTFFTPHLGSAVDDLRYDIAIEASQNILQVLQGHSPQGAINCPS"}, "B2": {"name": "wt-PTDH (P. stutzeri) (Stutzerimonas stutzeri) (protein)", "chain": "MLPKLVITHRVHDEILQLLAPHCELMTNQTDSTLTREEILRRCRDAQAMMAFMPDRVDADFLQACPELRVVGCALKGFDNFDVDACTARGVWLTFVPDLLTVPTAELAIGLAVGLGRHLRAADAFVRSGEFQGWQPQFYGTGLDNATVGILGMGAIGLAMADRLQGWGATLQYHEAKALDTQTEQRLGLRQVACSELFASSDFILLALPLNADTQHLVNAELLALVRPGALLVNPCRGSVVDEAAVLAALERGQLGGYAADVFEMEDWARADRPRLIDPALLAHPNTLFTPHIGSAVRAVRLEIERCAAQNIIQVLAGARPINAANRLPKAEPAAC"}, "B3": {"name": "PTDH ortholog from R. metallidurans (Cupriavidus metallidurans CH34) (protein)", "chain": "MNHRKIVVTQPVHEEVLRKLQAEGEVIMNPGPDPWSPSQLREYLVDADAMMAFMTDSVTKESLLNAPRLKTISCALKGYDNFDLRACAQAGVSVTFVPDLLTEPTAELAIGLAIAAGRNVLQGDAATRAGYSGWRPALYGTGLHGSVASVIGLGKVGQAILARLAGFGCARLLGVDPSVRLDQVELVTLDEAVSTSDYVFLAVPLVSDTRHLVDSRMLQLSKKGQILVNVGRGSVVDERAVVDALANEQLGAYAADVYEMEDWLLPDRPREIHPGLTNNARTVLTPHIGSAVRRVRFEIEMRAAENLVRSLRGESLSDVAVEASAAA"}}}
{"substrate": "NC(=O)c1ccc[n+]([C@@H]2O[C@H](COP(=O)(O)OP(=O)(O)OC[C@H]3O[C@@H](n4cnc5c(N)ncnc54)[C@H](O)[C@@H]3O)[C@@H](O)[C@H]2O)c1", "test": "purified protein", "conditions": "co-substrate phosphite, 100 mM MOPS pH 7.25, 30 °C"}
{"protein": "B1", "Km": "19.4 (1.6) μM", "kcat": "3.36 (0.03) s^-1"}
{"protein": "B2", "Km": "52.2 (3.3) μM", "kcat": "6.57 (0.03) s^-1"}
{"protein": "B3", "Km": "4.5 (0.9) μM", "kcat": "6.83 (0.43) s^-1"}
{"substrate": "O=[PH](O)O", "test": "purified protein", "conditions": "co-substrate NAD+, 100 mM MOPS pH 7.25, 30 °C"}
{"protein": "B1", "Km": "25.4 (1.2) μM", "kcat": "3.36 (0.03) s^-1"}
{"protein": "B2", "Km": "81.1 (1.6) μM", "kcat": "6.57 (0.03) s^-1"}
{"protein": "B3", "Km": "54.9 (6.8) μM", "kcat": "6.83 (0.43) s^-1"}
